The nature of this series: yeast display, Sf9 membrane polyspecificity reagent, FACS + sequencing; frameworks hold sequencing errors. The essentials:
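A nanobody's polyreactivity label depends on the gate it was sorted from. Yeast display cells were stained with 10% biotinylated, detergent-solubilized Sf9 membrane reagent for 1 hour at 4 °C, enriched on streptavidin microbeads and sorted by FACS. The low and high (top ~1%) gates were set on anti-HA fluorescence for expression and streptavidin fluorescence for reagent binding.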
With “QVQLVETGGVLVQAGGSLRLSCAASGRTFRYNAMGWYRPAPGKEREFVAAITWGGGSTYYADSVKGRFTISRDNAKNTVYLQMNSLKPEDTAVYYCNADYIGNYQSIYQYDYWGQGTQVTVSS”, the “polyreactivity (PSR sort gate)” value is “low polyreactivity”.
In the case of “QVQLVESGGGLVQAGGSLRLSCAASGSTLSGYVMGWYRQAPGKERELVAGISQSGASTYYADSVKGRFTISRDNAKNTVYLQMNSLKPEDTAVYYCAAVARYLLKYRRYGYWGQGTQVTVSS”, the “polyreactivity (PSR sort gate)” value is reported as “high polyreactivity”.
As to “QVQLVESGGGLVKAGGSLRLSCAASGSTFRYYAMGWYRQAPGKERELVAGITTGGGRTYYADSVKGRFTISRDNAKNTVYLQMNSLKPEDTAVYYCAADRYSHYWYRISYDYWGQGTQVTVSS”, the “polyreactivity (PSR sort gate)” value is “high polyreactivity”.
With “QVQLVESGGGLVQAGGSLRLSCAASGIIFYDYAMGWYRQAPGKERELVAAITSNGDNTYYADSVKGRFTISRDNAKNTVYLPMNSLKPEDTAVYYCAVDGSFAADFDNYLEEYGYWGQGTQVTVSS” the entry was “low polyreactivity”; with “QVQLVESGGGLVQAGGSLRLSCAASGSTFTSNTRWYRQAPGKERELVAAISNRGGGTYYADSVKGRFTISRDNAKNTVYLQMNSLKPEDTAVYYCNAAGYARKTAYYYWGQGTQVTVSS”, “high polyreactivity”; with “QVQLVESGGGLVQAGGSLRLSCAASGSIFGRYTMGWYRQAPGKERELVAAISWGGGSTYYADSVKGRFTISRDNAKNTVYLQMNSLKREDTAVYYCDADTYWAIDPIYDYWGQGTQVTVSS”, “low polyreactivity”.
With “QVQHEESGGGLDQAGGSLRLSSASSGTIFYGCYMGWYRQARGKEREMVATISWSSGSSTYYADSVKGRFTISRDNANNSVYLQMNILKPEDTAVYYCAVDFAIGYRYLCRVDYWGQGTQVTVSS” the entry was “low polyreactivity”.
With “QVQLVESGGGLVQAGGSLRLSCAASGFTFNSYAMGWYRQAPGKERELVAAISWSGGSTYYADSVKGRFTISRDNAKNTVYLQMNSLKPEDTAVYYCNRDGLSRPYYYWGQGTQVTLSS”, the “polyreactivity (PSR sort gate)” value is “high polyreactivity”.
In the case of “QVQLVESGGGLVQAGGSLRLSCAASGRIFPSYTMGWYRQAPGKERELVAGITKSGSSTYYADSVKGRFTISRDNAKNTVYLQMNSLKPEDTAVYYCAAVYGNPSYRYGYWGQGTQVTVSS” it was “high polyreactivity”.
For the sequence “QVPLVDSGGGLVQAGGSVRLSCAASGSIFYVYALGWYRQAPGTERELVAAINPSGGSTYADSVKGRFTISRDNAKISVYLQMYSLKTEDNAVSYCAAEPEWWWRGYGYWGQGKQVTVSS”, the “polyreactivity (PSR sort gate)” value was “low polyreactivity”.
In the case of “QVQLVESGGRIVQAGGSLRLSCAASGSTFLYYDMGWYRQAPGKERELVAAITNGGNTYYADSVKGRFTISRDNAKNTVYLQKNSRKPEDTAVYYCAKLYTDAIVWSAYDYWGQGTQVTVSS” it was “low polyreactivity”; in that of “QVQLVESGGGLVQAGGSLRLSCADSGSIFYYNAMGWYRQAPGKERELVAAISVSGGSTYYADSVKGRFTISRDNAKNTVYLQMNSLKPEDTAVYYCAAEWLYYYWLPGRADYLEYDYWGQGTQVTVSS”, “low polyreactivity”; in that of “QVQLVESGGGLVQAGGSLRLSCAASGFTFQYYAMGWYRQAPGKERELVAAISRSGGSTYYADSVKGRFTISRDNAKNTVYLQMNSLKPEDTAVYYCNAGRYASGKYDYWGQGTQVTVSS”, “high polyreactivity”.
In the case of “QVQLVESGGGLVQAGGSLRLSCAASGSTFSRYAMGWYRQAPGKERELVAAITRSGGGTHYADSVKGRFTISRDNAKNTVYLQMNSLKPEDTAVYYCATDYTKYPTGYYYWGQGTQVTVSS” it was “low polyreactivity”; in that of “QVQLVESGGGLVQAGGSLRLSCAASGSTLPTNAMGWYRQAPGKEREFVAAISDNGGSTYYADSVKGRFTISRDNAKNTVYLQMNSLKPEDTAVYYCAADWDESYSYRRYGHYDYWGQGTQVTVSS”, “low polyreactivity”; in that of “QVQLVESGGGLVQAGGSLRLSCAASGSTFTYNTMGWYRQAPGKERELVAAISWGGGGTYYADSVKGRFTISRDNAKNSVYLQMNSLKRVDTAVYYCKADPWWDYGTFDYWGQGTQVTVSS”, “low polyreactivity”.
Consider “QVQLVESGGGLVQAGGSLRLSCAASGRTFWSYAMGWYRQAPGKERELVATITGRGGSTYYADSVKGRFTISRDNAKNTVYLQMNSLKPEDTAVYYCARSQYSRSPSRMGYWGQGTQVTVSS”, for which the “polyreactivity (PSR sort gate)” value is recorded as “high polyreactivity”.
Consider “QGQLVESGGGLVQAGGSLRLSCAASGSMFYRYAMGWYRQAPGKERELVAVITSAGGTHYADSVKGRFTISRDNAKNTVYLQMTSLKPEDTAVDYCARRGYYYDYWGEGTQVTVSS”, for which the “polyreactivity (PSR sort gate)” value is on record as “high polyreactivity”.
In the case of “QVQLVESGGGLVQAGGSLRLSCAASGFIFQPYAMGWYRQAPGKERELVAAITSRGGRTYYADSVKGRITISRDNAKNTVYLQMNSLKPEDTAVYYCNADIYASEYYYWGQGTQVTVSS” it was “low polyreactivity”; in that of “QVQLVESGGGLVQAGGSLRLSCAASGRTFFYNTMGWYRQAPGKERELVAAISYRGGRTYYADSVKGRFTISRDNAKNTVYLQMNSLKPEDTAVYYCNAYSYGHYYWGQGTQVTVSS”, “high polyreactivity”; in that of “QVQLVESGGGLVQAGGSLRLSCAASGRIFRGYAMGWYRQAPGKEREFVAAITKNGGSTYYADSVKGRFTISRDNAKNTVYLQMNSLKPEDTAVYYCNAGTFTRRRGLDYWGQGTQVTVSS”, “low polyreactivity”.
“QVQLVESGGGLVQAGGSLRLSCAASGLTFNHYAMGWYRQAPGKERELVAAISSGSSTDYADSVKGRFTISRDNAKTTVYLQMHSLKPEDTAVYYCAVETPSTWFWGWGYDYDYWGQGTQVTVSS”: the “polyreactivity (PSR sort gate)” value is on record as “high polyreactivity”.
With “QVQLVESGGGLVQAGGSLRLSCAASGGIFHGYVMGWYRQEPGKERELVASIRTRGVRTYYADSVKGRFTISRDNAKNTVYLQMNSLKPEDTAVYYCNARGQVYSTLSSYRYDYWGQGTQVTVSS” the entry was “high polyreactivity”; with “QVQLVESGGGLDQAGGSLRLSCAASGIIFVKYTMGWYRQAPGTERELVAAISRSGGSTYYADSVKGRFTISRDNAKNTVYLQMNSLKPEDTAVYYCNAVSRKVYPGPMDYWGQGTQVTVSS”, “high polyreactivity”.
Consider “QVQLEESVGGLVQAGGSLRLSCAASGRIFTIYAMVSYRQAPGKERELVAAISDRGTRTYYADSVKGRFTISRDNAKNTVYLQMNSLKPDDTAVYYCATDALYTYGYDYWGQGTQVTVSS”, for which the “polyreactivity (PSR sort gate)” value is given as “low polyreactivity”.
On to “QVQLVESGGGLVQAGGSLRLSCAASGFIFVRYAMGWYRQAPGKERELVAAITKGGGRTYYADSVKGRFTISRDNAKNTVYLQMNSLKPEDTAVYYCATAGAHGRERDYWGQGTQVTVSS”, for which the “polyreactivity (PSR sort gate)” value is on record as “high polyreactivity”.
With “QVQLVESGGGLVQAGGSLRLSCAASGFTFRSYAMGWYRQAPGKERELVAVISSSGGSTYYADSVKGRFTISRDNAKNTVYLQMNSLKPEDTAVYYCNRRPATRAYLYDYWGQGTQVTVSS” the entry was “high polyreactivity”; with “QDQLVESGGGLVQAGGRLRLSCAASGSTFRRYAMGWYRQAPGTERDWVAAISGGGGSTYYADSVKGRFTISRDNAKNTVYLQMNSLKPEDTAVYYCNIPFPYYPDGPNGYDYWGQGTQVTVSS”, “low polyreactivity”.
In the case of “QVQLVESGGGLVQAGGSLRLSCAASGFTFGGYAMGWYIQAPGKERELVSAISGSGGRTYYADSVKGRFTISRDNAKNTVYLQMNSLKPEDTAVYYCATDGYWQSNGAFYYVARHGGYCGQGTQVTVSS” it was “low polyreactivity”.
Take “QVQLVESGGGLVQAGGSLRLSCAASGFIFVDYAMGWYRQAPGKERELVAAISSSGSTTYADSVKGRFTISRDNAKNIVYLQMNSLKPEDTAVYYCAAGLPRVLKDATFDYWGQGTQVTVSS”: the “polyreactivity (PSR sort gate)” value is listed as “low polyreactivity”.

Source of the values: the nanobody polyreactivity screen of Harvey et al. (2022).
